Variants at the floor of the assay were thinned out.
Key:
biotinyl-Met-oxazolone = assay: self-aminoacylation, catalytic enhancement (BMO) (fold over background); higher = more active; k-Seq, kA / k0A0; sequences stand for … in GGGAAUGGAUCCACAUCUACGAAUUC…UUCACUGCAGACUUGACGAAGCUG
Outline: (§1)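 Catalytic enhancement equals the median kA over the uncatalyzed rate, the latter read from the low-activity peak of a bimodal Gaussian fit. Values of kA came from fitting each sequence's fraction reacted to a pseudo-first-order model, with 1000 bootstraps. Reacted RNA was captured with streptavidin and quantified by triplicate qPCR and Illumina sequencing after 90 minutes at room temperature with 2–1250 μM biotinyl-aminoacyl-oxazolone and 0.43 μM mutagenized RNA pools bearing a 21-nt variable region.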

biotinyl-Phe-oxazolone = assay: self-aminoacylation, catalytic enhancement (BFO) (fold over background); higher = more active; k-Seq, kA / k0A0; sequences stand for … in GGGAAUGGAUCCACAUCUACGAAUUC…UUCACUGCAGACUUGACGAAGCUG
Outline: as §1

biotinyl-Ile-oxazolone = assay: self-aminoacylation, catalytic enhancement (BIO) (fold over background); higher = more active; k-Seq, kA / k0A0; sequences stand for … in GGGAAUGGAUCCACAUCUACGAAUUC…UUCACUGCAGACUUGACGAAGCUG
Outline: as §1

biotinyl-Trp-oxazolone = assay: self-aminoacylation, catalytic enhancement (BWO) (fold over background); higher = more active; k-Seq, kA / k0A0; sequences stand for … in GGGAAUGGAUCCACAUCUACGAAUUC…UUCACUGCAGACUUGACGAAGCUG
Outline: as §1

biotinyl-Leu-oxazolone = assay: self-aminoacylation, catalytic enhancement (BLO) (fold over background); higher = more active; k-Seq, kA / k0A0; sequences stand for … in GGGAAUGGAUCCACAUCUACGAAUUC…UUCACUGCAGACUUGACGAAGCUG
Outline: as §1

biotinyl-Val-oxazolone = assay: self-aminoacylation, catalytic enhancement (BVO) (fold over background); higher = more active; k-Seq, kA / k0A0; sequences stand for … in GGGAAUGGAUCCACAUCUACGAAUUC…UUCACUGCAGACUUGACGAAGCUG
Outline: as §1

| Sequence | self-aminoacylation (biotinyl-Met-oxazolone) | self-aminoacylation (biotinyl-Phe-oxazolone) | self-aminoacylation (biotinyl-Ile-oxazolone) | self-aminoacylation (biotinyl-Trp-oxazolone) | self-aminoacylation (biotinyl-Leu-oxazolone) | self-aminoacylation (biotinyl-Val-oxazolone) |
| --- | --- | --- | --- | --- | --- | --- |
| AUUACCCUGGUAAUCGAGGGA [Fam2.1 aminoacylation ribozyme variant] | 0.924 | 0.55 | 1.1 | 0.832 | 0.931 | 1.04 |
| AUUACCCUGGUAAUCGAGUGA [Fam2.1 aminoacylation ribozyme variant] | 8.63 | 54.5 | 3.7 | 9.96 | 8.46 | 3.82 |
| AUUACCCUGGUCAAAGAGUGA [Fam2.1 aminoacylation ribozyme variant] | 8.35 | 45.6 | 4 | 10.5 | 8.08 | 4.26 |
| AUUACCCUGGUCAACAAGUGA [Fam2.1 aminoacylation ribozyme variant] | 7.83 | 23.2 | 3.48 | 8.34 | 6.6 | 3.85 |
| AUUACCCUGGUCAACGAGAGA [Fam2.1 aminoacylation ribozyme variant] | 0.82 | 0.544 | 0.807 | 0.896 | 0.664 | 0.904 |
| AUUACCCUGGUCAAGGAGUGA [Fam2.1 aminoacylation ribozyme variant] | 3.47 | 3.96 | 1.94 | 3.32 | 2.87 | 2.04 |
| AUUACCCUGGUCACCGUGUGA [Fam2.1 aminoacylation ribozyme variant] | 3.88 | 21.1 | 1.98 | 5.51 | 3.95 | 2.06 |
| AUUACCCUGGUCACCUAGUGA [Fam2.1 aminoacylation ribozyme variant] | 4.99 | 25.9 | 2.12 | 5.72 | 4.95 | 2.49 |
| AUUACCCUGGUCAGCGAGAGA [Fam2.1 aminoacylation ribozyme variant] | 1.27 | 0.961 | 1.43 | 1.54 | 1.26 | 1.51 |
| AUUACCCUGGUCAGCGAGUAA [Fam2.1 aminoacylation ribozyme variant] | 1.48 | 0.633 | 1.19 | 0.914 | 1.14 | 1.27 |
| AUUACCCUGGUCAGGGAGUGA [Fam2.1 aminoacylation ribozyme variant] | 3.36 | 18.9 | 2.57 | 2.41 | 3.27 | 2.54 |
| AUUACCCUGGUCAUAGAGUGA [Fam2.1 aminoacylation ribozyme variant] | 10.4 | 54.8 | 4.72 | 11.9 | 9.8 | 4.94 |
| AUUACCCUGGUCAUAGGGUGA [Fam2.1 aminoacylation ribozyme variant] | 6.67 | 42.3 | 4.03 | 7.12 | 7.73 | 3.12 |
| AUUACCCUGGUCAUCAAAUGA [Fam2.1 aminoacylation ribozyme variant] | 1.14 | 1.1 | 1.1 | 0.735 | 0.969 | 0.806 |
| AUUACCCUGGUCAUCAAGCGA [Fam2.1 aminoacylation ribozyme variant] | 1 | 0.84 | 0.846 | 0.661 | 0.895 | 1.13 |
| AUUACCCUGGUCAUCAAGUGA [Fam2.1 aminoacylation ribozyme variant] | 2.31 | 4.11 | 1.51 | 2.87 | 2.25 | 1.79 |
| AUUACCCUGGUCAUCCAUUGA [Fam2.1 aminoacylation ribozyme variant] | 0.84 | 1.15 | 1.08 | 0.684 | 1.14 | 1.08 |
| AUUACCCUGGUCAUCCCGUGA [Fam2.1 aminoacylation ribozyme variant] | 7.44 | 43.3 | 3.61 | 9.33 | 9.66 | 4.22 |
| AUUACCCUGGUCAUCGAAUGU [Fam2.1 aminoacylation ribozyme variant] | 0.925 | 0.64 | 0.894 | 0.653 | 1.06 | 0.788 |
| AUUACCCUGGUCAUCGAAUUA [Fam2.1 aminoacylation ribozyme variant] | 1.5 | 0.751 | 1.26 | 0.504 | 0.955 | 1.18 |
| AUUACCCUGGUCAUCGAGCGA [Fam2.1 aminoacylation ribozyme variant] | 3.51 | 3.41 | 2.15 | 3.33 | 3.7 | 2.18 |
| AUUACCCUGGUCAUCGAGUCG [Fam2.1 aminoacylation ribozyme variant] | 0.797 | 0.759 | 0.765 | 0.725 | 0.794 | 0.976 |
| AUUACCCUGGUCAUCGAGUUA [Fam2.1 aminoacylation ribozyme variant] | 10.8 | 26.4 | 4.08 | 8.28 | 10.3 | 4.86 |
| AUUACCCUGGUCAUCGCGUGA [Fam2.1 aminoacylation ribozyme variant] | 18.3 | 139 | 8.09 | 20.1 | 20.3 | 9.74 |
| AUUACCCUGGUCAUCGGGUGA [Fam2.1 aminoacylation ribozyme variant] | 122 | 711 | 47 | 140 | 133 | 60.9 |
| AUUACCCUGGUCAUCGGGUGU [Fam2.1 aminoacylation ribozyme variant] | 123 | 722 | 40.7 | 133 | 136 | 56.5 |

| Sequence | self-aminoacylation (biotinyl-Met-oxazolone) | self-aminoacylation (biotinyl-Phe-oxazolone) | self-aminoacylation (biotinyl-Ile-oxazolone) | self-aminoacylation (biotinyl-Trp-oxazolone) | self-aminoacylation (biotinyl-Leu-oxazolone) | self-aminoacylation (biotinyl-Val-oxazolone) |
| --- | --- | --- | --- | --- | --- | --- |
| AUUACCCUGGUCAUCGGGUUA [Fam2.1 aminoacylation ribozyme variant] | 38.5 | 218 | 12.3 | 45.8 | 42.4 | 17.8 |
| AUUACCCUGGUCAUCGGUUGA [Fam2.1 aminoacylation ribozyme variant] | 2 | 6.78 | 1.62 | 3.08 | 1.94 | 1.34 |
| AUUACCCUGGUCAUCGUAUGA [Fam2.1 aminoacylation ribozyme variant] | 0.984 | 0.633 | 0.789 | 0.855 | 0.814 | 1.02 |
| AUUACCCUGGUCAUCGUGGGA [Fam2.1 aminoacylation ribozyme variant] | 1.33 | 4.91 | 1.18 | 1.98 | 1.58 | 1.22 |
| AUUACCCUGGUCAUCUAGUGU [Fam2.1 aminoacylation ribozyme variant] | 4.11 | 9.89 | 2.02 | 4.88 | 4.08 | 2.48 |
| AUUACCCUGGUCAUGGAGGGA [Fam2.1 aminoacylation ribozyme variant] | 1.83 | 2.1 | 1.82 | 2.23 | 1.86 | 1.76 |
| AUUACCCUGGUCAUGGAGUCA [Fam2.1 aminoacylation ribozyme variant] | 0.798 | 0.746 | 0.907 | 0.594 | 0.838 | 1.01 |
| AUUACCCUGGUCAUUGCGUGA [Fam2.1 aminoacylation ribozyme variant] | 15.8 | 108 | 6.44 | 17.1 | 18.1 | 7.31 |
| AUUACCCUGGUCAUUUAGUGA [Fam2.1 aminoacylation ribozyme variant] | 11.7 | 70 | 5.57 | 14.4 | 11.1 | 5.82 |
| AUUACCCUGGUCCUCGCGUGA [Fam2.1 aminoacylation ribozyme variant] | 11 | 87.3 | 5.45 | 13.8 | 15.1 | 7.66 |
| AUUACCCUGGUCCUCGGGUGA [Fam2.1 aminoacylation ribozyme variant] | 9.89 | 69.6 | 5.18 | 9.25 | 10.4 | 6.25 |
| AUUACCCUGGUCCUCUAGUGA [Fam2.1 aminoacylation ribozyme variant] | 9.46 | 79.1 | 4.37 | 12.3 | 10.6 | 5.33 |
| AUUACCCUGGUCGCCGAGUGA [Fam2.1 aminoacylation ribozyme variant] | 4.14 | 22.8 | 3.48 | 4.48 | 5.59 | 2.58 |
| AUUACCCUGGUCGUCGAAUGA [Fam2.1 aminoacylation ribozyme variant] | 1.22 | 3.37 | 0.785 | 1.1 | 0.734 | 0.838 |
| AUUACCCUGGUCUACGAGUGA [Fam2.1 aminoacylation ribozyme variant] | 6.17 | 25.5 | 3.67 | 7.19 | 6.37 | 3.68 |
| AUUACCCUGGUCUUCGAAUGA [Fam2.1 aminoacylation ribozyme variant] | 0.746 | 0.408 | 0.649 | 0.642 | 0.694 | 0.728 |
| AUUACCCUGGUCUUGGAGUGA [Fam2.1 aminoacylation ribozyme variant] | 2.24 | 5.63 | 2.27 | 4.3 | 3.23 | 1.98 |
| AUUACCCUGGUGAUCGACUGA [Fam2.1 aminoacylation ribozyme variant] | 0.951 | 0.543 | 1.05 | 0.743 | 1.12 | 1.02 |
| AUUACCCUGGUGAUCGAGUCA [Fam2.1 aminoacylation ribozyme variant] | 0.978 | 0.521 | 0.912 | 0.415 | 0.741 | 0.859 |
| AUUACCCUGGUGAUGGAGUGA [Fam2.1 aminoacylation ribozyme variant] | 5.67 | 31.1 | 2.62 | 5.69 | 5.75 | 2.55 |
| AUUACCCUGGUGAUUGAGUGA [Fam2.1 aminoacylation ribozyme variant] | 7.66 | 57.1 | 3.55 | 9.23 | 7.64 | 3.55 |
| AUUACCCUGGUUAACGAGUGA [Fam2.1 aminoacylation ribozyme variant] | 14.1 | 106 | 5.85 | 17.3 | 14.4 | 6.35 |
| AUUACCCUGGUUACCGAGUGA [Fam2.1 aminoacylation ribozyme variant] | 11.9 | 78.8 | 5.43 | 12.3 | 12.6 | 5.65 |
| AUUACCCUGGUUAGCGAGUGA [Fam2.1 aminoacylation ribozyme variant] | 4.21 | 22.1 | 2.2 | 5.27 | 4.28 | 2.1 |
| AUUACCCUGGUUAUAGAGUGA [Fam2.1 aminoacylation ribozyme variant] | 16.7 | 117 | 6.6 | 19.1 | 16 | 6.47 |

Source: the supplement of paper PMC9233669
